Results reported in the Immune Epitope Database (IEDB).

The sequences below were run against HLA-B*57:01 (assay: IEDB peptide-MHC binding, purified MHC/competitive/radioactivity; ≥ and ≤ were set here for values at or beyond the usual limits of such assays). Settings: source organism: Bordetella pertussis.

Sequence | IC50
VTSVAMKPY | 9.09 µM
NNETMSGRQ | ≥ 70.4 µM
TVVQRNKHW | ≥ 70.4 µM
EKRLDIDDA | ≥ 70.4 µM

The sequences below were run against HLA-B*53:01 in the same assay as above. Settings: source organism: Bordetella pertussis.

Sequence | IC50
VSGGSLSAP | 54.5 µM
ASSPDAHVP | 52.3 µM
VGAGGYEAG | 69.9 µM
YAEHGEVSI | 11.4 µM
TVVQRNKHW | 69.9 µM
FIYRETFCI | 6.63 µM
LSAALGADW | 1.69 µM

The sequences below were run against HLA-B*07:02 in the same assay as above. Settings: source organism: Bordetella pertussis.

Sequence | IC50
QQLKQADRD | 69.6 µM
LAARGDGAL | 6.34 µM

The sequences below were run against HLA-B*35:01 in the same assay as above. Settings: source organism: Bordetella pertussis.

Sequence | IC50
YAIDGTAAG | 2.33 µM
LAARGDGAL | 69.9 µM

The sequences below were run against HLA-A*02:01 in the same assay as above. Settings: source organism: Bordetella pertussis.

Sequence | IC50
STYELLDYL | 8.01 µM
HLSPALADV | 0.444 µM

What follows are sequences tested against HLA-B*44:03 in the same assay as above. Settings: source organism: Bordetella pertussis.

Sequence | IC50
MEVMLRAVF | 0.0115 µM
AEGGATLGA | 12 µM
LSAALGADW | 1.17 µM
